The chains are these.
B1: ALBINO3-like protein 1, chloroplastic (Arabidopsis thaliana (Mouse-ear cress)), Q9FYL3 (parent)
chain: MSSTISLKPTHLILSSFSTGKVLQFRRSRFSHTPSSSSSRYRTLVAQLGFRPDSFDFIKDHAENLLYTIADAAVSSSETFESVAGTTTKTTQSNDWFSGIANYMETILKVLKDGLSTVHVPYSYGFAIILLTVLVKAATFPLTKKQVESAMAMKSLTPQIKAIQERYAGDQEKIQLETARLYKLAGINPLAGCLPTLATIPVWIGLYRALSNVADEGLLTEGFFWIPSLAGPTTVAARQNGSGISWLFPFIEGHPPLGWPDTLAYLVLPLLLVFSQYLSIQIMQSSQSNDPAMKSSQAVTKLLPLMIGYFALSVPSGLSLYWLTNNILSTAQQVWLQKYGGAKNPVEKFTNLVTKEDKTQQIEKSFSEPLVQKSVSELKIPREKGGEKVTPECPKPGERFRLLKEQEAKRRREKEERQKAEAALSNQNTDKAHEQDEKSDTAIVAEDDKKTELSAVDETSDGTVAVNGKPSIQKDETTNGTFGIGHDTEQQHSHETEKR
partner: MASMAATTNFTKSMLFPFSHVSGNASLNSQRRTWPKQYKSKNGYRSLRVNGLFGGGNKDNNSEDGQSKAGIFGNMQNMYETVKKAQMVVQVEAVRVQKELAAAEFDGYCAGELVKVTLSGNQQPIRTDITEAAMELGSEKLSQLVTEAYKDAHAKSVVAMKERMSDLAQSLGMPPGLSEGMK

The variants in the first experiment derive from B1. As to conditions: with ebfc2_arath STIC2, O82230.
G397S: the “effect of a mutation on the interaction” value was “decreasing interaction strength”.

The variants in a further experiment derive from B1. As to conditions: with ebfc2_arath STIC2, O82230. The source holds these as a separate data set.
As for G397S, the “effect of a mutation on the interaction” value is “with no effect”.

For the origin of these results see IntAct's records for PubMed 28684427.
